Consider one molecule from US6497872B1, “Neural transplantation using proliferated multipotent neural stem cells and their progeny” (NeuroSpheres Holdings Ltd., priority 1991, dated 2002).

Test [1] relates to EGF-generated mouse neurospheres. Nature of the test: BDNF on single EGF-generated neurospheres (Example 12). It is filed as cell-based. Conditions: 10 ng/ml; 14-28 days in vitro; preliminary experiments. As to the method:
The expression of the trk family of neurotrophin receptors in EGF-generated neurospheres was examined by northern blot analysis. Total mRNA was isolated from mouse and rat striatal EGF-generated neurospheres. […] In preliminary experiments, single EGF-generated mouse neurospheres were plated on poly-L-ornithine coated glass coverslips and cultured in the absence or presence of 10 ng/ml of BDNF. […] Activation of the trkB receptor on EGF-generated neurospheres may enhance differentiation, survival of and/or neurite outgrowth from newly generated neurons.

Test [2] concerns EGF-generated neurospheres. In words: Effect of growth factors on neurosphere differentiation, immunocytochemistry (Example 8). It is filed as cell-based, mouse. Conditions: paradigm 3; BDNF. As to the method: Six to 8 days after the first passage, the neurospheres were removed and centrifuged at 400 r.p.m. The EGF-containing supernatant was removed and the pellet suspended in EGF-free complete medium containing 1% FBS. Neurospheres (approximately 0.5-1.0×10^6 cells/well) were plated on poly-L-ornithine-coated (15 μg/ml) glass coverslips in 24 well Nuclon (1.0 ml/well) culture dishes. After 24 hours in culture, the coverslips were transferred to 12 well (Costar) culture dishes containing complete medium containing 0.5% FBS. The medium was changed every 4-7 days. This differentiation procedure is referred to as the “Rapid Differentiation Paradigm” or RDP.
Six to 8 days after the first passage, the neurospheres were removed and centrifuged at 400 r.p.m. The EGF-containing media was removed and the pellet was suspended in EGF-free complete medium containing 1% FBS. The neurospheres were mechanically dissociated into single cells with a fire-polished Pasteur pipette and centrifuged at 800 r.p.m. for 5 minutes. Between 0.5×10^6 and 1.0×10^6 cells were plated on poly-L-ornithine-coated (15 μg/ml) glass coverslips in 24 well Nuclon (1.0 ml/well) culture dishes. The EGF-free culture medium containing 1% FBS was changed every 4-7 days.
Neurospheres were washed free of EGF by serial transfers through changes of EGF-free medium. A single neurosphere was plated onto poly-L-ornithine-coated (15 μg/ml) glass coverslips in a 24-well plate. The culture medium used was complete medium with or without I % FBS. The medium was changed every 4-7 days.
Neurospheres were washed free of EGF by serial transfers through changes of EGF-free medium. A single neurosphere was mechanically dissociated in a 0.5 ml Eppendorf centrifuge tube and all the cells were plated onto a 35 mm culture dish. Complete medium was used with or without 1% FBS.
The effects of CNTF, FGF-2, BDNF, and retinoic acid on neurosphere differentiation were tested using the differentiation paradigms set forth in Example 7.
The effect of CNTF was assayed in paradigms 1 and 3. For both paradigms, CNTF was added either at the beginning of the experiment at a concentration of 10 ng/ml or daily at a concentration of 1 ng/ml.
Three different antibodies directed against 04, galactocerebroside (GalC) and MBP were used to study the effect of CNTF on the oligodendrocytes of paradigm 1. CNTF had no effect on the number of 04(+) cells, but there was an increase in the number of GalC(+) and MBP(+) cells compared with the control. Thus it appears that CNTF plays a role in the maturation of oligodendrocytes.
The effect of FGF-2 was tested using paradigms 2 and 4. In paradigm 2, 20 ng/ml of FGF-2 was added at the beginning of the experiment and cells were stained 7 days later. FGF-2 increased the number of GFAP(+) cells and the number of NSE(+) cells.
In paradigm 4, 20 ng/ml of FGF-2 was added at the beginning of the experiment and assayed 7-10 days later. […] It induced two different cell types to divide, neuroblasts and bipotential progenitor cells. The neuroblast produced, on average, 6 neurons while the bipotential cell produced approximately 6 neurons and a number of astrocytes.

The subject of test [3] is EGF-generated precursor cells. In words: Screening of BDNF on differentiation and survival of stem cell progeny (Example 37). It is filed as cell-based, mouse. As to the method: Precursor cells were propagated as described in Example 4 and differentiated using Paradigm 3 described in Example 7. At the time of plating the EGF-generated cells, BDNF was added at a concentration of 10 ng/ml. At 3, 7, 14, and 21 days in vitro (DIV), cells were processed for indirect immunocytochemistry. BrdU labeling was used to monitor proliferation of the precursor cells. The effects of BDNF on neurons, oligodendrocytes and astrocytes were assayed by probing the cultures with antibodies that recognize antigens found on neurons (MAP-2, NSE, NF), oligodendrocytes (O4, GalC, MBP) or astrocytes (GFAP). Cell survival was determined by counting the number of immunoreactive cells at each time point and morphological observations were made.
Cells treated with BDNF according to the methods described in Part A were probed with antibodies that recognize neural transmitters or enzymes involved in the synthesis of neural transmitters. These included TH, ChAT, substance P, GABA, somatostatin, and glutamate. In both control and BDNF-treated culture conditions, neurons tested positive for the presence of substance P and GABA.
Cells that are responsive to growth factor treatment were identified by differentiating the EGF-generated progeny as described in Example 7, paradigm 3 and at 1 DIV adding approximately 100 ng/ml of BDNF. At 1, 3, 6, 12 and 24 hours after the addition of BDNF the cells were fixed and processed for dual label immunocytochemistry. Antibodies that recognize neurons (MAP-2, NSE, NF), oligodendrocytes (O4, GalC, MBP) or astrocytes (GFAP) were used in combination with an antibody that recognizes c-fos and/or other immediate early genes.

B1: BDNF: brain-derived neurotrophic factor (protein, UniProt P23560 19-247, looked up)
Neurotrophic factor BDNF …: APMKEANIRGQGGLAYPGVRTHGTLESVNGPKAGSRGLTSLADTFEHVIEELLDEDQKVRPNEENNKDADLYTSRVMLSSQVPLEPPLLFLLEEYKNYLDAANMSMRVRRHSDPARRGELSVCDSISEWVTAADKKTAVDMSGGTVTVLEKVPVSKGQLKQYFYETKCNPMGYTKEGCRGIDKRHWNSQCRTTQSYVRALTMDSKKRIGWRFIRIDTSCVCTLTIKRGR
Take B1: the “morphology of NSE(+) cells” value in test [1] is “NSE(+) cells with extensive and highly branched processes”. In test [2], the “neuronal branching and migration of the neurons away from the sphere” value is “increase”; the “number of NSE(+) neurons per neurosphere” value is given as “increase”. Further, the “neurite extension and branching” value in test [3] (10 ng/ml) is recorded as “dramatic increase”. Further, the “Astrocyte and oligodendrocyte numbers versus control” value in test [3] (10 ng/ml, paradigm 3) was “not significantly altered”. Also, in test [3] (10 ng/ml, paradigm 3, 3-21 DIV), the “differentiation and survival of neurons versus control” value is “significantly increased”. Besides, in test [3] (approximately 100 ng/ml at 1 DIV, 1-24 hours), the expression of c-fos entry was “selective increase in the expression of c-fos in neuronal cells”.
